± gives the uncertainty stated by the source.
Experiment: self-splicing fitness, log relative to wild type (ln ratio); higher = more splicing; Tetrahymena group I intron in knt gene, E. coli kanamycin selection, DiMSum; sequences stand for … in CUCUCU…GGAGGGAAAAGUUAUCAGGCAUGCACCUGGUAGCUAGUCUUUAAACCAAUAGAUUGCAUCGGUUUAAAAGGCAAGACCGUCAAAUUGCGGGAAAGGGGUCAACAGCCGUUCAGUACCAAGUCUCAGGGGAAACUUUGAGAUGGCCUUGCAAAGGGUAUGGUAAUAAGCUGACGGACAUGGUCCUAACCACGCAGCCAAGUCCUAAGUCAACAGAUCUUCUGUUGAUAUGGAUGCAGUUCACAGACUAAAUGUCGGUCGGGGAAGAUGUAUUCUUCUCAUAAGAUAUAGUCGGACCUCUCCUUAAUGGGAGCUAGCGGAUGAAGUGAUGCAACACUGGAGCCGCUGGGAACUAAUUUGUAUGCGAAAGUAUAUUGAUUAGUUUUGGAGUACUCGUGGUCG
Summary of the method: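 Fitness was computed with DiMSum as the error-weighted combination of replicate fold changes, kanamycin versus none, each normalised to wild type. The library randomised all eight intron nucleotides of the P1ex region, with the intron placed in the knt kanamycin-resistance gene on pET-22b(+) in E. coli BL21(DE3). Six replicate transformations were grown overnight at 37°C or 30°C on LB agar with or without 25 μg/mL kanamycin, plus 100 μg/mL carbenicillin, 50 μM IPTG and 0.2% rhamnose. Pooled colonies were amplicon-sequenced on an Illumina HiSeq 2500.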

Sequence	self-splicing fitness (ln) (30 °C)	self-splicing fitness (ln) (37 °C)
GUCCAGCAAUAUUACGAUUA	-0.767 ± 0.074	-0.551 ± 0.077
GUCCAGCAAUAUUACGCAAC	-0.987 ± 0.099	-0.844 ± 0.11
GUCCAGCAAUAUUACGCCCC	-1.09 ± 0.18	-0.607 ± 0.18
GUCCAGCAAUAUUACGCGAU	-3.24 ± 0.19	-2.4 ± 0.19
GUCCAGCAAUAUUACGCUCU	-0.327 ± 0.1	0.137 ± 0.12
GUCCAGCAAUAUUACGCUGG	-4.01 ± 0.12	-3.25 ± 0.11
GUCCAGCAAUAUUACGGAAA	-0.248 ± 0.095	0.62 ± 0.12
GUCCAGCAAUAUUACGGAUU	-2.84 ± 0.09	-0.789 ± 0.091
GUCCAGCAAUAUUACGGCAU	-0.147 ± 0.085	-0.171 ± 0.093
GUCCAGCAAUAUUACGGGAG	-1.15 ± 0.063	-0.322 ± 0.082
GUCCAGCAAUAUUACGGUUA	-0.0348 ± 0.05	0.165 ± 0.055
GUCCAGCAAUAUUACGGUUC	-0.386 ± 0.049	0.219 ± 0.065
GUCCAGCAAUAUUACGUCAG	-4.93 ± 0.28	-2.16 ± 0.14
GUCCAGCAAUAUUACGUGAU	-0.729 ± 0.047	-0.345 ± 0.071
GUCCAGCAAUAUUACGUUCU	-2.35 ± 0.09	-0.777 ± 0.08
GUCCAGCAAUAUUACGUUUC	-0.538 ± 0.056	-0.05 ± 0.074
GUCGAGCAAUAUUACGAAAG	-2.57 ± 0.29	-2.2 ± 0.35

Sequence	self-splicing fitness (ln) (30 °C)	self-splicing fitness (ln) (37 °C)
GUCGAGCAAUAUUACGAGCG	-2.88 ± 0.19	-1.03 ± 0.23
GUCGAGCAAUAUUACGAGUC	-3.73 ± 0.25	-2.2 ± 0.18
GUCGAGCAAUAUUACGAGUG	-1.62 ± 0.088	-1.85 ± 0.11
GUCGAGCAAUAUUACGAGUU	-2.66 ± 0.18	-2.52 ± 0.28
GUCGAGCAAUAUUACGAUAU	-1.44 ± 0.13	-0.298 ± 0.17
GUCGAGCAAUAUUACGCCCA		-0.376 ± 0.33
GUCGAGCAAUAUUACGCGAC	-2.57 ± 0.2	-2.12 ± 0.29
GUCGAGCAAUAUUACGGAGA	-2.84 ± 0.23	-2.47 ± 0.31
GUCGAGCAAUAUUACGGAUC	-1.36 ± 0.087	-0.586 ± 0.097
GUCGAGCAAUAUUACGGCAU	-1.04 ± 0.067	0.111 ± 0.083
GUCGAGCAAUAUUACGGGAC	-3.05 ± 0.22	-2.05 ± 0.21
GUCGAGCAAUAUUACGGGGG	-2.05 ± 0.29	
GUCGAGCAAUAUUACGGGUA	-2.65 ± 0.27	-2.91 ± 0.22
GUCGAGCAAUAUUACGGUGG	-3.54 ± 0.27	-2.24 ± 0.22
GUCGAGCAAUAUUACGUCGU	-0.515 ± 0.12	-0.592 ± 0.17
GUCGAGCAAUAUUACGUGAU	-2.2 ± 0.15	-2.11 ± 0.18
GUCGAGCAAUAUUACGUUAA		-2.06 ± 0.47

Source: the supplement of paper PMC7877785
